Results on nine substances are retold here after publication doi:10.1101/2024.03.12.584494.

Some targets named below: mCherry-KIBRA WT (mouse) (UniProt Q5SXA9); mGFP-PICK1 5K-E (mouse) (UniProt Q62083); mGFP-KIBRA ΔCt (mouse) (UniProt Q5SXA9); mCherry-PICK1 WT (mouse) (UniProt Q62083); mGFP-KIBRA ΔαBR (mouse) (UniProt Q5SXA9); mGFP-KIBRA ΔCCL (mouse) (UniProt Q5SXA9); mGFP-KIBRA ΔC2 (mouse) (UniProt Q5SXA9).
What all share (assay): co-IP

Chain of mCherry-PICK1 WT (mouse) (Q62083 whole entry): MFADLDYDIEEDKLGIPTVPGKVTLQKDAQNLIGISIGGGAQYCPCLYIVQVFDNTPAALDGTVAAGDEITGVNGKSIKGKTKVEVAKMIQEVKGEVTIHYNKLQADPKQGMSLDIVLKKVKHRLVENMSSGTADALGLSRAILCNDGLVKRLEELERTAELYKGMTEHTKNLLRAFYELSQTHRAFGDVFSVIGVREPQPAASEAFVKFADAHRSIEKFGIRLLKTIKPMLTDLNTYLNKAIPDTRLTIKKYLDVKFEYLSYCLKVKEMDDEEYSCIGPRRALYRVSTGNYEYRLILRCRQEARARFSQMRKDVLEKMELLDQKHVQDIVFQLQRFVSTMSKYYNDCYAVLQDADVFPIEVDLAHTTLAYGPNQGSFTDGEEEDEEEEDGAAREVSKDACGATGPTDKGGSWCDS
Chain of mGFP-KIBRA ΔC2 (Q5SXA9 whole entry, stated change not applied): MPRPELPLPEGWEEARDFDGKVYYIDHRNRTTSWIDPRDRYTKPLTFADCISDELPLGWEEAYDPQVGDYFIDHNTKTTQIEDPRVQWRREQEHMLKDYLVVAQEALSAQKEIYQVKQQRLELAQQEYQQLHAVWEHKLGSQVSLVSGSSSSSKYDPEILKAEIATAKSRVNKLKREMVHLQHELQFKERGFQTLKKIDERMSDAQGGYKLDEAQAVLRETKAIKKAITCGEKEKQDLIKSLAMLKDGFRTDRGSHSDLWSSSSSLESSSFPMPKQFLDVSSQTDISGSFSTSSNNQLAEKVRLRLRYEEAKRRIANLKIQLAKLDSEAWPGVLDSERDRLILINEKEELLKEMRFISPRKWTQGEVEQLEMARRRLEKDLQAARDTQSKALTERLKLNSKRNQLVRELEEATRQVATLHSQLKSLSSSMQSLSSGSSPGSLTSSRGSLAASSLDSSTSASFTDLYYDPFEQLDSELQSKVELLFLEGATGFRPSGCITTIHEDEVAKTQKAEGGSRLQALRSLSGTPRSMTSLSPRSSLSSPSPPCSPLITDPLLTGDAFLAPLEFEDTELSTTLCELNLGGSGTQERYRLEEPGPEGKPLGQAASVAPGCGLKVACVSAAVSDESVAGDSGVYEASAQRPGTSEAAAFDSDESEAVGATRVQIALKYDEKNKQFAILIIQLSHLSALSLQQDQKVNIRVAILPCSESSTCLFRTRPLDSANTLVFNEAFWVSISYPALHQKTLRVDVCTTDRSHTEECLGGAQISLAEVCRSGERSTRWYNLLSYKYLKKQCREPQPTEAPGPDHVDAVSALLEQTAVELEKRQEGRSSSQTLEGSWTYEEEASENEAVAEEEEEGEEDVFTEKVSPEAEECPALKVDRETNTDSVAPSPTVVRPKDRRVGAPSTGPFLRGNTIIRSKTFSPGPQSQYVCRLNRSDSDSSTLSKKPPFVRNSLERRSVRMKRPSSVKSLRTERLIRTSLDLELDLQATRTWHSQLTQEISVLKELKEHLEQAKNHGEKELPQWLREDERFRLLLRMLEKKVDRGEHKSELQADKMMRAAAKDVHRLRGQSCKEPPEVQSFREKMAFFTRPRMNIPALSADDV
Chain of mGFP-KIBRA ΔCCL (Q5SXA9 whole entry, stated change not applied): as above
Chain of mCherry-KIBRA WT (mouse) (Q5SXA9 whole entry): as the sequence (Q5SXA9 whole entry, stated change not applied) above
Chain of mGFP-KIBRA ΔCt (Q5SXA9 whole entry, stated change not applied): as above
Chain of mGFP-KIBRA ΔαBR (Q5SXA9 whole entry, stated change not applied): as above
Chain of mGFP-PICK1 5K-E (mouse) (Q62083 whole entry): as the sequence (Q62083 whole entry) above
Chain of mCherry-KIBRA WT (Q5SXA9 whole entry): as the sequence (Q5SXA9 whole entry, stated change not applied) above
Chain of mGFP-KIBRA ΔWW (Q5SXA9 whole entry, stated change not applied): as above
Chain of Myc-GluA2 (P19491 22-883): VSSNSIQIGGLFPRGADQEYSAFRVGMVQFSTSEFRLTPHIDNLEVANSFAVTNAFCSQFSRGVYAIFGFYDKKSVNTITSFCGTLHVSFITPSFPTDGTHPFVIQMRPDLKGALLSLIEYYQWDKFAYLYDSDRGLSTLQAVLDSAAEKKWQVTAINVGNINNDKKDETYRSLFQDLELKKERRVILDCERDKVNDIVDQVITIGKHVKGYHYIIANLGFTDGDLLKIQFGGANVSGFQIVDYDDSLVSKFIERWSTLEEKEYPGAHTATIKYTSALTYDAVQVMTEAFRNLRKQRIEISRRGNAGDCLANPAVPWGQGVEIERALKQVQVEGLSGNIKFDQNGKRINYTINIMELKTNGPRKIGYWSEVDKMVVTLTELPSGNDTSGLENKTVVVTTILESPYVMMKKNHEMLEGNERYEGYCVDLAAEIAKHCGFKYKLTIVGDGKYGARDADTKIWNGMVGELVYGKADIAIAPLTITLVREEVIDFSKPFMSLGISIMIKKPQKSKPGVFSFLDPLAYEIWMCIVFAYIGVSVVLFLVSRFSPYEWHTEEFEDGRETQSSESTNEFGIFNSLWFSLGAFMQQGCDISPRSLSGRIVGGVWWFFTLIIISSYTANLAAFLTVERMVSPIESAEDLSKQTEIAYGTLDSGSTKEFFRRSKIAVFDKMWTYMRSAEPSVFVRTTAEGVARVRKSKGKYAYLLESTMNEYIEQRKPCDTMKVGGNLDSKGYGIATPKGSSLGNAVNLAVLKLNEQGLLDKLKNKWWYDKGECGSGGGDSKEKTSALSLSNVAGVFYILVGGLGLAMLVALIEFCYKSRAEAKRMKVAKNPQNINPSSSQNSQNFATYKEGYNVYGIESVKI
Chain of mGFP-PICK1 KD-AA (Q62083 whole entry): as the sequence (Q62083 whole entry) above
Chain of mGFP-PICK1 BAR (domain or fragment) (Q62083 whole entry, the tested form may be a part): as the sequence (Q62083 whole entry) above

In the experiment with mCherry-KIBRA WT (mouse), “mGFP-PICK1 KD-AA (from UniProt Q62083 1-416) (natural protein)” yielded a PICK1 pull down normalized to input and same-gel WT PICK1 of 0.8.
On to “mCherry-KIBRA WT (from UniProt Q5SXA9 1-1104) (natural protein)”, for which the KIBRA signal with PICK1 5K-E normalized to +PICK1 WT with mGFP-PICK1 5K-E (mouse) stood at 0.63.
With “mGFP-KIBRA ΔCt (from UniProt Q5SXA9 1-1104) (natural protein)”, in the experiment with mGFP-KIBRA ΔCt (mouse), the co-precipitated mGFP-KIBRA normalized to WT sample from the same blot is 1. In addition, the co-precipitated KIBRA normalized to WT sample from the same blot in the experiment with mCherry-PICK1 WT (mouse) was 5.79.
Substance “Myc-GluA2 (from UniProt P19491 22-883) (receptor)” yielded a GluA2 signal with PICK1 5K-E normalized to +PICK1 WT with mGFP-PICK1 5K-E (mouse) of 0.27.
For the substance “mGFP-KIBRA ΔαBR (from UniProt Q5SXA9 1-1104) (natural protein)”, the co-precipitated mGFP-KIBRA normalized to WT sample from the same blot with mGFP-KIBRA ΔαBR (mouse) turned out to be 1.55. This substance also gave a co-precipitated KIBRA normalized to WT sample from the same blot with mCherry-PICK1 WT (mouse) of 1.84.
As to “mGFP-KIBRA ΔWW (from UniProt Q5SXA9 1-1104) (natural protein)”, the co-precipitated KIBRA normalized to WT sample from the same blot in the experiment with mCherry-PICK1 WT (mouse) was found to be 1.87.
On to “mGFP-KIBRA ΔCCL (from UniProt Q5SXA9 1-1104) (natural protein)”, for which, in the experiment with mCherry-PICK1 WT (mouse), the co-precipitated KIBRA normalized to WT sample from the same blot turned out to be 1.53. The co-precipitated mGFP-KIBRA normalized to WT sample from the same blot with mGFP-KIBRA ΔCCL (mouse) turned out to be 1.6.
“mGFP-KIBRA ΔC2 (from UniProt Q5SXA9 1-1104) (natural protein)” came in with a co-precipitated KIBRA normalized to WT sample from the same blot with mCherry-PICK1 WT (mouse) of 1.08. Further, the co-precipitated mGFP-KIBRA normalized to WT sample from the same blot with mGFP-KIBRA ΔC2 (mouse) amounted to 1.36.
For the substance mGFP-PICK1 BAR (domain or fragment), the PICK1 pull down normalized to input and same-gel WT PICK1 with mCherry-KIBRA WT (mouse) is 2.06.
